Data published in patent US20220064322A1 (JACOBIO PHARMACEUTICALS, published 2022).
Where two headings read alike, the source gives them in different places.

How the values were obtained:
[1] = biological target: T1, human CD73 ecto-domain recombinant protein (huCD73) (human, UniProt P21589 27-547); assay: indirect ELISA, coated soluble huCD73
T1 construct: also called soluble huCD73; soluble recombinant CD73
T1 sequence: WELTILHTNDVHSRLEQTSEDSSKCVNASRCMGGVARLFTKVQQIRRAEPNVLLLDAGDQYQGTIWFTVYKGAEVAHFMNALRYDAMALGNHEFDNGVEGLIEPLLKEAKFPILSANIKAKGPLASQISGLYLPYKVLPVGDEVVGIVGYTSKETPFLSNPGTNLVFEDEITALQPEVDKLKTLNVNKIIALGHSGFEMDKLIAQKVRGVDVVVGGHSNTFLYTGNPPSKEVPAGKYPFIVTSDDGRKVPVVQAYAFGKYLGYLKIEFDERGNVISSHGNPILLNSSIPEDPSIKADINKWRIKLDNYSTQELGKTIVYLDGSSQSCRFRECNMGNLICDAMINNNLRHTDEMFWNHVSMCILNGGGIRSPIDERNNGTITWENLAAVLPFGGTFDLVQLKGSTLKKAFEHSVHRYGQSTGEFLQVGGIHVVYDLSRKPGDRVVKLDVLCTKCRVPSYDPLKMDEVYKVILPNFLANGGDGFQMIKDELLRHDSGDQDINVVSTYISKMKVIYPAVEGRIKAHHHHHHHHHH
Protocol: (§1) The indirect ELISA method was applied to evaluate the binding ability of each positive clone to soluble huCD73 protein. Soluble huCD73 was coated, and gradient diluted samples were incubated, then HPR-labeled secondary antibody was added, finally TMB was added to develop the color, and OD450 was read after termination.
(§2) 1 ug/ml of recombinant CD73 protein was coated on ELISA plates (Coning), incubate overnight at 4° C. The next day, wash 5 times in PBS and blocked with 200 ul/well 2% skimmed milk, a certain dose range of CD73 antibodies were incubated for 1 h at room temperature. Wash 5 times with PBST washing buffer (PBS, 0.05% Tween 20), add HRP-conjugated goat anti-mouse IgG (H+L) (Promega) and incubate at room temperature for 1 h to detect bound anti-CD73 antibodies; wash the plate 5 times again and add TMB (Life Technologies) for color development for 5 to 10 min; finally the reaction was stopped by adding 1N HCl, and the OD value was measured at 450 nm. GraphPad Prism software was used to generate data graphs and statistical affinity data.

[2] = biological target: T2, cynomolgus CD73 on the cell surface (293T/17-cynoCD73 cells) (cynomolgus (Macaca fascicularis), UniProt P21589 27-547 (human entry)); assay: cell-based or functional assay
T2 chain: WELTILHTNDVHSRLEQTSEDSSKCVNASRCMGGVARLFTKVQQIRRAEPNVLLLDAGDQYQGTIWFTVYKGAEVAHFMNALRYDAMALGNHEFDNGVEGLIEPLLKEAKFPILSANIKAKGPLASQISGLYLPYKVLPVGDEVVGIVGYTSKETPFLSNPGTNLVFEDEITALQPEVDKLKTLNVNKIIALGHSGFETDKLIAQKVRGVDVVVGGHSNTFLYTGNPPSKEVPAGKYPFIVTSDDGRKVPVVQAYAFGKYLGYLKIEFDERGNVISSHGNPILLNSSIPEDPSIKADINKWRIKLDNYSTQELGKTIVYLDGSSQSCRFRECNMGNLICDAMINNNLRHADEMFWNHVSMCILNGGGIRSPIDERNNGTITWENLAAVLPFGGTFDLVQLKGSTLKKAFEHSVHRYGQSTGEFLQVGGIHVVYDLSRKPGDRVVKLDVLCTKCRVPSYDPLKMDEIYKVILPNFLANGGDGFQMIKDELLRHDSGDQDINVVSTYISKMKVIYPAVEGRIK

[3] = biological target: T1, human CD73 ecto-domain recombinant …; assay: indirect ELISA, coated soluble huCD73, curve fit
Protocol: as §1, §2

[4] = biological target: T1, human CD73 ecto-domain recombinant …; assay: indirect ELISA, coated soluble huCD73, HRP-labelled secondary antibody, OD450
Protocol: as §1, §2

[5] = biological target: T1, human CD73 ecto-domain recombinant …; assay: cell-based or functional assay
[6] = biological target: T2, cynomolgus CD73 on the cell surface …; assay: flow cytometry on 293T/17-Cyno CD73 cells
Protocol: (§3) 2×10⁶ cells resuspended in PBS buffer were distributed into 96-well plates and incubated with gradient diluted humanized antibodies for 1 h at refrigerator 4° C. or on ice, then the cells was centrifuged for 3 min 1500 rpm at 4° C. and washed three times by PBS, and diluted APC-labeled goat anti-human polyclonal antibody (Biolegend) were incubated for 30 min at refrigerator 4° C. Finally, the cells were washed three times with PBS as described above and analyzed on MACSQuant flow cytometer. GraphPad Prism software was used to generate data graphs and statistical affinity data.
(§4) The samples to be tested were incubated for 1 h at 4° C. after gradient dilution. After washing, 100 μL of APC-labeled secondary antibody was added to each well and incubated for 30 min. After washing, detecting on machine and the fluorescence value was read. GraphPad Prism software was used to generate data graphs and statistical affinity data.

[7] = biological target: T1, human CD73 ecto-domain recombinant …; assay: indirect ELISA, plate coated with 1 ug/ml huCD73 recombinant protein, HRP-labelled secondary antibody, RFU
Protocol: (§5) Incubated with gradient diluted 100 μL/well of antibodies for 1 h at room temperature. After the plates were washed 3 times with 200 ul/well of PBST, 100 ul of diluted HRP-labeled secondary antibody at a ratio of 1:5000 was added to each well, and the plates were incubated for 1 hour at room temperature. The plates were washed 3 times with 200 ul/well of PBST, 100 ul of TMB was added to each well and reacted for 5 minutes at room temperature in the dark. […] read the OD value. The affinity of humanized antibodies and parent antibodies were similar to the antigen (table 9).

[8] = biological target: T2, cynomolgus CD73 on the cell surface …; assay: flow cytometry on 293T/17-Cyno CD73 cells, curve fit
Protocol: as §3, §4

[9] = biological target: T1, human CD73 ecto-domain recombinant …; assay: indirect ELISA, coated huCD73 recombinant protein
Protocol: as §5

[10] = biological target: T1, human CD73 ecto-domain recombinant …; assay: indirect ELISA, coated huCD73 recombinant protein, curve fit
Protocol: as §5

[11] = biological target: T2, cynomolgus CD73 on the cell surface …; assay: cell-based or functional assay
[12] = biological target: T2, cynomolgus CD73 on the cell surface …; assay: flow cytometry on 293T/17 cells expressing cynoCD73, APC-labelled goat anti-human antibody, MFI
Protocol: as §3, §4

B1: 94A12G11F2 (antibody, mouse IgG1, kappa)
heavy: QVQLQQSGAELAKPGASVKLSCKASGYTFTSYWMHWVKQRPGQGLEWIGYINPSSGYTKSNQKFKDKATLTADKSSSTAYMQLSSLTYEDSAVYYCGRWLLSAWFAYWGQGTLVTVSAAKTTPPSVYPLAPGSAAQTNSMVTLGCLVKGYFPEPVTVTWNSGSLSSGVHTFPAVLQSDLYTLSSSVTVPSSTWPSETVTCNVAHPASSTKVDKKIVPRDCGCKPCICTVPEVSSVFIFPPKPKDVLTITLTPKVTCVVVDISKDDPEVQFSWFVDDVEVHTAQTQPREEQFNSTFRSVSELPIMHQDWLNGKEFKCRVNSAAFPAPIEKTISKTKGRPKAPQVYTIPPPKEQMAKDKVSLTCMITDFFPEDITVEWQWNGQPAENYKNTQPIMDTDGSYFVYSKLNVQKSNWEAGNTFTCSVLHEGLHNHHTEKSLSHSPGK
light: DIRMTQSPSSMYASLGERVTITCKASQDINTYLSWFQQKPGKSPKSLIYRSNILVDGVPSRFSGSGSGQDYSLTISSLEYEDMGIYYCLQYDDFPYTFGGGTKLEIKRADAAPTVSIFPPSSEQLTSGGASVVCFLNNFYPKDINVKWKIDGSERQNGVLNSWTDQDSKDSTYSMSSTLTLTKDEYERHNSYTCEATHKTSTSPIVKSFNRNEC
notes: Hybridoma antibody, mouse IgG1 / mouse kappa full chains
[1]
  EC50: 0.242 nM
[2]
  IC50, blockade of 5'exonuclease activity on 293T/17-Cyno CD73 cells: 0.006 nM
[3]
  Bottom: 0.0566 OD450
  Top: 2.94 OD450
[4]
  EC50 (read off the curve): ~0.2 nM
[5]
  Bottom (lower plateau of the fitted curve), blockade of soluble huCD73 enzyme activity (AMP hydrolysis, luciferase/CellTiter-Glo): 6.21
  IC50, blockade of soluble huCD73 enzyme activity (AMP hydrolysis, luciferase/CellTiter-Glo): 1.5 nM
  Top (upper plateau of the fitted curve), blockade of soluble huCD73 enzyme activity (AMP hydrolysis, luciferase/CellTiter-Glo): 87.8

B2: 191C3A8B9 (antibody, mouse IgG1, kappa, V domains shown)
VH: QVQLKESGPGLVAPSQSLSITCTVSGFSLTNYGVHWVRQPPGKGLEWLGVIWAGGSTNYNSALMSRLSISKDNSKSQLFLKMNSLQADDTAMYYCARERGSSWGTMDYWGQGTSVTVSS
VL: QIVLTQSPAIMSASPGEKVTMTCSASSRVSYMHWYQQKSGTSPKRWIYDTSQLASGVPARFSGSGSGTSYSLTISSMEAEDAATYYCQQWSSNPYTFGGGTKLEMRR
notes: as for B1
[1]
  EC50: 0.279 nM
[2]
  IC50, blockade of 5'exonuclease activity on 293T/17-Cyno CD73 cells: 0.001 nM
[3]
  Bottom: 0.0498 OD450
  Top: 2.75 OD450
[4]
  EC50 (read off the curve): ~0.04 µg/mL
[5]
  Bottom (lower plateau of the fitted curve), blockade of soluble huCD73 enzyme activity (AMP hydrolysis, luciferase/CellTiter-Glo): 5.55
  IC50, blockade of soluble huCD73 enzyme activity (AMP hydrolysis, luciferase/CellTiter-Glo): 2.41 nM
  Top (upper plateau of the fitted curve), blockade of soluble huCD73 enzyme activity (AMP hydrolysis, luciferase/CellTiter-Glo): 93.7

B3: JB24Chi (antibody, human IgG1, kappa, V domains shown)
VH: QVQLQQSGLELVKPGASVKMSCKASGYTFTDYNMHWVKQSHGKSLEWIGYIKPHNGGTTYNPKFEGKATLTVNKSSSTAYMELRSLTSEDSAVYYCVRCDFLYWYFDVWGTGTTVTVSS
VL: DIVMTQSPAIMSASLGERVTMTCTASSSVSSSYLHWYQQKPGSSPKLWIYSTSNLASGVPGRFSGSGSGTSYSLTISSMEAEDAATYYCHQYHRSPLTFGAGTKLEMKR
notes: Phage antibody, chimeric human IgG1 / human kappa full chains
[6]
  EC50: 6.38 nM
[1]
  EC50: 0.039 nM
[7]
  EC50 (read off the curve): ~0.1 µg/mL
[8]
  Bottom: 0.709 fluorescence
  Top: 68.5 fluorescence
[9]
  EC50: 0.0273 nM
[10]
  Bottom: 128 OD value
  Top: 6600 OD value
[2]
  IC50, blockade of 5'exonuclease activity on 293T/17-Cyno CD73 cells: 0.084 nM
[3]
  Bottom: 0.136 OD450
  Top: 3.09 OD450
[4]
  EC50 (read off the curve): ~0.04 nM
[5]
  Bottom (lower plateau of the fitted curve), blockade of soluble huCD73 enzyme activity (AMP hydrolysis, luciferase/CellTiter-Glo): 14.7
  IC50, blockade of soluble huCD73 enzyme activity (AMP hydrolysis, luciferase/CellTiter-Glo): 0.401 nM
  Top (upper plateau of the fitted curve), blockade of soluble huCD73 enzyme activity (AMP hydrolysis, luciferase/CellTiter-Glo): 102
[11]
  IC50, blockade of 5'exonuclease activity on 293T/17-Cyno CD73 cells: 0.005 nM

B4: S1B5 (antibody, human IgG1, kappa, V domains shown)
VH: EVQLKESGAELVKPGASVKISCKATGYTFTGYWIEWVKQRPGRGLEWIGEILPGSDITNYNEKFKGKATITADTSSNTAYMQLSSLTTEDSAIYYCARRGYDETGYAMDYWGQGTSVTVSS
VL: DIVMTQSPASLAVSLGQRATISCKASQSVDYDGDSYMNWYQQKPGQPPKLLIHAASNLESGIPARFSGSGSGTDFTLNIHPVEEEDAAVYFCQQSKEVPWTFGEGTKLEIKR
notes: as for B3
[1]
  EC50: 0.085 nM
[2]
  IC50, blockade of 5'exonuclease activity on 293T/17-Cyno CD73 cells: 0.085 nM
[3]
  Bottom: 0.007 OD450
  Top: 2.93 OD450
[4]
  EC50 (read off the curve): ~0.08 nM
[5]
  Bottom (lower plateau of the fitted curve), blockade of soluble huCD73 enzyme activity (AMP hydrolysis, luciferase/CellTiter-Glo): 16.2
  IC50, blockade of soluble huCD73 enzyme activity (AMP hydrolysis, luciferase/CellTiter-Glo): 3.26 nM
  Top (upper plateau of the fitted curve), blockade of soluble huCD73 enzyme activity (AMP hydrolysis, luciferase/CellTiter-Glo): 99.5

B5: JB24H2L1 (antibody, human IgG1, kappa, V domains shown)
VH: QVQLVQSGAEVKKPGASVKMSCKASGYTFTDYNMHWVRQSPGKSLEWIGYIKPHNAGTTYNPKFEGRATLTVDTSASTAYMELSSLRSEDTAVYYCVRSDFLYWYFDVWGQGTTVTVSS
VL: DIQMTQSPSSLSASVGDRVTITCTASSSVSSSYLHWYQQKPGKAPKLLIYSTSNLASGVPSRFSGSGSGTDFTLTISSLQPEDFATYYCHQYHRSPLTFGAGTKLEIKR
notes: Humanized antibody of JB24Chi, human IgG1 / kappa
[6]
  EC50: 1.89 nM
[7]
  EC50 (read off the curve): ~0.2 µg/mL
[8]
  Bottom: 1.4 fluorescence
  Top: 36.5 fluorescence
[9]
  EC50: 0.0248 nM
[10]
  Bottom: 191 OD value
  Top: 6290 OD value
[12]
  EC50 (read off the curve): ~2 nM
[11]
  IC50, blockade of 5'exonuclease activity on 293T/17-Cyno CD73 cells: 0.079 nM
